The source of these data is patent CN116284371A (SUZHOU FANGKE BIOTECHNOLOGY CO LTD; SUZHOU INST OF SYSTEMS …, dated 2023).

The test has as its target T1, 重组蛋白MDA5 (MDA5抗原蛋白) (Homo sapiens (Human), UniProt Q9BYX4 1-1025).
T1 construct: Recombinant MDA5 from a synthetic gene in pFastBac1 (EcoRI/XbaI); also called MDA5蛋白
T1 sequence: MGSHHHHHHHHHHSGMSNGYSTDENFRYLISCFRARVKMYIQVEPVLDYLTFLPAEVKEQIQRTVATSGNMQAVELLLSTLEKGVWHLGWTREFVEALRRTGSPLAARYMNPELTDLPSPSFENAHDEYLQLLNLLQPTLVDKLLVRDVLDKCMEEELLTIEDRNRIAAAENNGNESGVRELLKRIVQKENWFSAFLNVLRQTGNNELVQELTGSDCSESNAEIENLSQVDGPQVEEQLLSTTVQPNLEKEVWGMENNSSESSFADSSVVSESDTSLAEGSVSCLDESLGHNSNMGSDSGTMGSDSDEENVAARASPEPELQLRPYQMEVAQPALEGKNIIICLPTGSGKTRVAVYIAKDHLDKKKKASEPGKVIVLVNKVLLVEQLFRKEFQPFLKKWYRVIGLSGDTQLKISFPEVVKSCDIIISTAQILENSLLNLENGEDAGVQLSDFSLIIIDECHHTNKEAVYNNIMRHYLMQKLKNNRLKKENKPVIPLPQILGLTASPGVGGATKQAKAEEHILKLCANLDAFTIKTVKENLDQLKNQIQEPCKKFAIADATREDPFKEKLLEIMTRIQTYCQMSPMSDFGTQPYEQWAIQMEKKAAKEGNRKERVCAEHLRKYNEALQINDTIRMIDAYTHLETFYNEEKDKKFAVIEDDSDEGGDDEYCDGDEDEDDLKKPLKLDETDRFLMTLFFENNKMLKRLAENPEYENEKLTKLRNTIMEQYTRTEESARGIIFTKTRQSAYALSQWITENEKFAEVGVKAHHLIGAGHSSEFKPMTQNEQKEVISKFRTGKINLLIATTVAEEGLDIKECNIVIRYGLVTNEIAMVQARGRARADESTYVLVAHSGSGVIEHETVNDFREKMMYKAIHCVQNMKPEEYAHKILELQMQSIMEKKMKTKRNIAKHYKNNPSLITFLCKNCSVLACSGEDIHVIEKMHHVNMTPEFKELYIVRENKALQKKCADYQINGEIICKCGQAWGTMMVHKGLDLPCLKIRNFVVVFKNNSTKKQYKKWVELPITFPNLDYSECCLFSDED
Nature of the test: ELISA, MDA5 coated 4 ug/mL, antibody dilution series, anti-human IgG-HRP. In general terms: In an ELISA, binding on a coated surface is turned into a signal by an enzyme label.

B1: 76F-MDA5-R2P1-G5抗体 (antibody, human IgG1, kappa, V domains shown)
VH: QVQLVESGGGVVQPGRSLRLSCAASGFTFSSYAMHWVRQAPGKGLEWVAVISYDGSNKYYADSVKGRFTISRDNSKNTLYLQMNSLRAEDTAVYYCARHRRYAFDIWGQGTTVTVSS
VL: QAVLTQPASVSGSPGQSITISCTGTSSDVGGYNYVSWYQQHPGKAPKLMIYDVSKRPSGVSNRFSGSKSGNTASLTISGLQAEDEADYYCSSYVVSYTWVFGGGTKVTVLR
notes: The printed heavy and light chain entries appear to start with a leader peptide
For the molecule B1, the binding result is reported as “binds”.
